The target in test [1] is His-tagged CRABP1 R29A (Mus musculus). In words: pull-down; purified His-CRABP1 (WT or mutant, 5 uM) held on Ni-NTA resin as bait; 250 ug pre-cleared lysate of HEK293T cells expressing GFP-CaMKII (DMSO or ionomycin 10 uM, 10 min) as prey; 50 mM Tris pH 8.0, 150 mM NaCl, 0.2% NP-40, 20% glycerol, 200 mM imidazole, overnight at 4°C; Western blot with anti-GFP and anti-His; densitometry gives the CCI (n = 5). Background: In western blotting, separated proteins are transferred to a membrane and probed.

Test [2] deals with His-tagged CRABP1 T96A (Mus musculus). The test is described as above.
In test [3] the target is His-tagged CRABP1 H94A (Mus musculus). The test is described as above.
Test [4] has as its target T1, 15N-labeled wild-type cellular retinoic acid-binding protein 1 (CRABP1) (Mus musculus, UniProt P62965 2-137, 15N-labeled).
T1 construct: also called 15N-labeled CRABP1; 15N WT CRABP1; source: expressed and purified as described in Park et al. (2019); SEC
In words: NMR titration; 15N-1H HSQC of 15N-labeled CRABP1 (19 uM) without and with CaMK-R peptide (200 uM); 30 mM d11-Tris-d3-acetate pH 6.2, 75 mM Na2SO4, 10 uM ZnCl2, 1 mM TCEP, 30°C. The conditions noted are these: both partners purified.

T1 sequence (P62965 2-137): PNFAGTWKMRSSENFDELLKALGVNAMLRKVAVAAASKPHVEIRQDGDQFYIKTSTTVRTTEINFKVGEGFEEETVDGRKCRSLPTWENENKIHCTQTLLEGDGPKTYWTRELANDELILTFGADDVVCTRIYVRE

Consider “GFP-CaMKII beta, inactive (from vehicle-treated HEK293T cells) (from UniProt P08413 1-542) (cell lysate)”, for which the CRABP1–CaMKII Complex Index (CCI; ratio of inactive to active CaMKII pulled down) in test [1] amounted to 1.
Turning to “GFP-CaMKII beta, inactive (from vehicle-treated HEK293T cells) (from UniProt P08413 1-542) (enzyme)”, the CRABP1–CaMKII Complex Index (CCI; ratio of inactive to active CaMKII pulled down) in test [2] and in test [3] was 1 in each case.

B1: CaMK-R peptide (29-residue peptide, residues 281–309 of the regulatory segment of CaMKII alpha) (peptide, UniProt P11798 281-309, looked up)
peptide: MHRQETVDCLKKFNARRKLKGAILTTMLA
notes: also called CAMKII-R; CaMKII peptide; source: synthetic peptide (University of Minnesota Peptide Synthesis Services)
In the case of B1, in test [4], the binding result is recorded as “binds”.

Source of the values: paper PMC10562560, “Molecular basis for cellular retinoic acid-binding protein 1 in modulating CaMKII activation” (Frontiers in Molecular Biosciences, 2023).
